Data published in US20150118233A1.
Where a chain is given by its changes, count along the chain named.

B1: Nanobody NC41 (VHH)
VHH: EVQLVESGGGLVQAGGSLSISCAASGGSLSNYVLGWFRQAPGKEREFVAAINWRGDITIGPPNVEGRFTISRDNAKNTGYLQMNSLAPDDTAVYYCGAGTPLNPGAYIYDWSYDYWGRGTQVTVSS
B2: Nanobody 191D3 (VHH)
VHH: EVQLVESGGGLVQAGGSLRLSCEASGRTYSRYGMGWFRQAPGKEREFVAAVSRLSGPRTVYADSVKGRFTISRDNAENTVYLQMNSLKPEDTAVYTCAAELTNRNSGAYYYAWAYDYWGQGTQVTVSS
B3: Nanobody 15H8 (VHH)
VHH: EVQLVESGGGLVQAGGSLRLSCAASGRSFSNYVLGWFRQAPGKEREFVAAISFRGDSAIGAPSVEGRFTISRDNAKNTGYLQMNSLVPDDTAVYYCGAGTPLNPGAYIYDWSYDYWGRGTQVTVSS
B4: Nanobody 1E4 (VHH)
VHH: B2 VHH with Y29F, R31S, S106P, A112T
B5: Nanobody 7B2 (VHH)
VHH: EVQLVESGGGLVQAGDSLRLSCAASGRTFSSYAMGWFRQAPGKEREFVAAISWSDGSTYYADSVKGRFTISRDNAKNTVYLQMNSLKPEDTAVYYCAADLTSTNPGSYIYIWAYDYWGQGTQVTVSS
B6: Nanobody NC23 (VHH)
VHH: EVQLVESGGGLVQPGGSLRLSCAASGRTFSSIAMGWFRQAPGKEREFVAAISWSRGRTFYADSVKGRFIISRDDAANTAYLQMNSLKPEDTAVYYCAVDTASWNSGSFIYDWAYDHWGQGTQVTVSS
B7: Nanobody 15B3 (VHH)
VHH: EVQLVESGGGLVQPGGSLRLSCAASGLTLDYYALGWFRQAPGKEREGVSCISSSDHSTTYTDSVKGRFTISWDNAKNTLYLQMNSLKPGDTAVYYCAADPALGCYSGSYYPRYDYWGQGTQVTVSS
B8: Nanobody 191E4 (VHH)
VHH: EVQLVESGGGLVQAGGSLRLSCAASGPTFSADTMGWFRQAPGKEREFVATIPWSGGIAYYSDSVKGRFTMSRDNAKNTVDLQMNSLKPEDTALYYCAGSSRIYIYSDSLSERSYDYWGQGTQVTVSS
B9: RSV400 (7B2-15GS-7B2-15GS-7B2) (bispecific antibody)
chain: EVQLVESGGGLVQAGDSLRLSCAASGRTFSSYAMGWFRQAPGKEREFVAAISWSDGSTYYADSVKGRFTISRDNAKNTVYLQMNSLKPEDTAVYYCAADLTSTNPGSYIYIWAYDYWGQGTQVTVSSGGGGSGGGGSGGGGSEVQLVESGGGLVQAGDSLRLSCAASGRTFSSYAMGWFRQAPGKEREFVAAISWSDGSTYYADSVKGRFTISRDNAKNTVYLQMNSLKPEDTAVYYCAADLTSTNPGSYIYIWAYDYWGQGTQVTVSSGGGGSGGGGSGGGGSEVQLVESGGGLVQAGDSLRLSCAASGRTFSSYAMGWFRQAPGKEREFVAAISWSDGSTYYADSVKGRFTISRDNAKNTVYLQMNSLKPEDTAVYYCAADLTSTNPGSYIYIWAYDYWGQGTQVTVSS
B10: RSV106 (7B2-15GS-7B2) (VHH)
chain: EVQLVESGGGLVQAGDSLRLSCAASGRTFSSYAMGWFRQAPGKEREFVAAISWSDGSTYYADSVKGRFTISRDNAKNTVYLQMNSLKPEDTAVYYCAADLTSTNPGSYIYIWAYDYWGQGTQVTVSSGGGGSGGGGSGGGGSEVQLVESGGGLVQAGDSLRLSCAASGRTFSSYAMGWFRQAPGKEREFVAAISWSDGSTYYADSVKGRFTISRDNAKNTVYLQMNSLKPEDTAVYYCAADLTSTNPGSYIYIWAYDYWGQGTQVTVSS
B11: Synagis® Fab (Fab, part only; not given: Constant regions, biotin sites, V domains shown, not shown: another chain or arm of the molecule)
VH: QVTLRESGPALVKPTQTLTLTCTFSGFSLSTSGMSVGWIRQPPGKALEWLADIWWDDKKDYNPSLKSRLTISKDTSKNQVVLKVTNMDPADTATYYCARSMITNWYFDVWGAGTTVTVSS
VL: DIQMTQSPSTLSASVGDRVTITCKCQLSVGYMHWYQQKPGKAPKLLIYDTSKLASGVPSRFSGSGSGTEFTLTISSLQPDDFATYYCFQGSGYPFTFGGGTKLEIK
B12: RSV407 (NC41-15GS-NC41-15GS-NC41) (VHH)
chain: EVQLVESGGGLVQAGGSLSISCAASGGSLSNYVLGWFRQAPGKEREFVAAINWRGDITIGPPNVEGRFTISRDNAKNTGYLQMNSLAPDDTAVYYCGAGTPLNPGAYIYDWSYDYWGRGTQVTVSSGGGGSGGGGSGGGGSEVQLVESGGGLVQAGGSLSISCAASGGSLSNYVLGWFRQAPGKEREFVAAINWRGDITIGPPNVEGRFTISRDNAKNTGYLQMNSLAPDDTAVYYCGAGTPLNPGAYIYDWSYDYWGRGTQVTVSSGGGGSGGGGSGGGGSEVQLVESGGGLVQAGGSLSISCAASGGSLSNYVLGWFRQAPGKEREFVAAINWRGDITIGPPNVEGRFTISRDNAKNTGYLQMNSLAPDDTAVYYCGAGTPLNPGAYIYDWSYDYWGRGTQVTVSS
B13: RSV404 (15H8-15GS-15H8-15GS-15H8) (VHH)
chain: EVQLVESGGGLVQAGGSLRLSCAASGRSFSNYVLGWFRQAPGKEREFVAAISFRGDSAIGAPSVEGRFTISRDNAKNTGYLQMNSLVPDDTAVYYCGAGTPLNPGAYIYDWSYDYWGRGTQVTVSSGGGGSGGGGSGGGGSEVQLVESGGGLVQAGGSLRLSCAASGRSFSNYVLGWFRQAPGKEREFVAAISFRGDSAIGAPSVEGRFTISRDNAKNTGYLQMNSLVPDDTAVYYCGAGTPLNPGAYIYDWSYDYWGRGTQVTVSSGGGGSGGGGSGGGGSEVQLVESGGGLVQAGGSLRLSCAASGRSFSNYVLGWFRQAPGKEREFVAAISFRGDSAIGAPSVEGRFTISRDNAKNTGYLQMNSLVPDDTAVYYCGAGTPLNPGAYIYDWSYDYWGRGTQVTVSS
B14: RSV116 (NC41-15GS-NC41) (bispecific antibody)
chain: EVQLVESGGGLVQAGGSLSISCAASGGSLSNYVLGWFRQAPGKEREFVAAINWRGDITIGPPNVEGRFTISRDNAKNTGYLQMNSLAPDDTAVYYCGAGTPLNPGAYIYDWSYDYWGRGTQVTVSSGGGGSGGGGSGGGGSEVQLVESGGGLVQAGGSLSISCAASGGSLSNYVLGWFRQAPGKEREFVAAINWRGDITIGPPNVEGRFTISRDNAKNTGYLQMNSLAPDDTAVYYCGAGTPLNPGAYIYDWSYDYWGRGTQVTVSS

What follows are binders tested against hRSV FTM- NN protein (membrane anchorless form of the Long fusion protein, 70 kDa) (hRSV strain Long) (assay: SPR (Biacore) on Ftm-NN protein; Table B-5 run (selected NC41 variants), separate from Table B-1).

Row | Binder | Kd [nM]
1 | B1 | 4

The binders below were run against hRSV FTM- NN protein (membrane anchorless form of the Long fusion protein, 70 kDa) (hRSV strain Long) (assay: SPR (Biacore T100), FTM- NN amine-coupled, 1:1 Langmuir fit).

Row | Binder | Kd [nM] | koff [s⁻¹] | kon [M⁻¹ s⁻¹]
2 | B2 | 1.9 | 0.0028 | 1.5e+06
3 | B3 | 16 | 0.021 | 1.2e+06
4 | B1 | 8.1 | 0.0067 | 820000
5 | B4 | 1.6 | 0.0013 | 800000
6 | B5 | 1.1 | 0.00065 | 570000
7 | B6 | 0.92 | 0.00074 | 800000
8 | B7 | 0.67 | 0.00027 | 410000
9 | B8 | 0.27 | 0.00015 | 570000

The binders below were run on F protein of Long escape mutant R7C2/1 (K272E in antigenic site II) (hRSV strain Long escape mutant) (assay: ELISA on extract of HEp-2 cells infected with R7C2/1).

Row | Binder | binding (% reactivity relative to Long wild type) [%]
10 | B9 | 13
11 | B7 | > 75
12 | B8 | > 75
13 | B10 | 4.4

These binders were tested on F protein of hRSV strain Long (hRSV strain Long) (assay: binding ELISA on coated hRSV (Hytest), anti-VHH detection).

Row | Binder | EC50 [nM]
14 | B2 | 0.15
15 | B3 | 0.83
16 | B1 | 0.41
17 | B4 | 0.066
18 | B5 | 0.09
19 | B6 | 0.1
20 | B7 | 0.058
21 | B8 | 0.083

What follows are binders tested against hRSV FTM- NN protein (membrane anchorless form of the Long fusion protein, 70 kDa) (hRSV strain Long) (assay: Alphascreen competition: FTM- NN (0.3 nM) bridged by biotinylated Synagis Fab and 101F Fab acceptor beads).

Row | Binder | IC50 [nM]
22 | B11 | 0.597

What follows are binders tested against hRSV FTM- NN protein (membrane anchorless form of the Long fusion protein, 70 kDa) (hRSV strain Long) (assay: SPR (Biacore) on Ftm-NN protein).

Row | Binder | koff [s⁻¹] | kon [M⁻¹ s⁻¹]
23 | B1 | 0.0067 | 1.7e+06

The binders below were run against hRSV FTM- NN protein (membrane anchorless form of the Long fusion protein, 70 kDa) (hRSV strain Long) (assay: binding ELISA on immobilised FTM- protein; detection with rabbit anti-VHH and HRP goat anti-rabbit).

Row | Binder | EC50 (read off the curve) [nM]
24 | B3 | 1
25 | B1 | 1
26 | B12 | 0.2
27 | B5 | 0.3
28 | B13 | 0.3
29 | B14 | 0.3
30 | B9 | 0.3

What follows are binders tested against hRSV FTM- NN protein (membrane anchorless form of the Long fusion protein, 70 kDa) (hRSV strain Long) (assay: competition ELISA on coated FTM- NN; competitor biotinylated Synagis Fab).

Row | Binder | EC50 [nM]
31 | B2 | 5.9
32 | B3 | 39
33 | B1 | 32
34 | B4 | 4.5
35 | B5 | 1.9
36 | B6 | 2.3

These binders were tested on F protein of hRSV strain B-1 (hRSV strain B-1) (assay: cell-based or functional assay).

Row | Binder | Neutralization IC50 [nM] | Neutralization, ratio to Synagis [fold]
37 | B12 | 0.66 | 3

Each binder was assayed on F protein of hRSV strain Long (hRSV strain Long) (assay: cell-based or functional assay).

Row | Binder | RSV neutralization IC50 [nM] | Neutralization IC50 (first assay) [nM] | Neutralization IC50 (second assay) [nM] | Neutralization IC50 [nM] | Neutralization, ratio to Synagis [fold]
38 | B2 | 253 |  |  |  | 
39 | B3 | 200 |  |  |  | 
40 | B1 | 58 | 202 | 122 |  | 
41 | B4 | 380 |  |  |  | 
42 | B12 |  |  |  | 0.0941 | 59
43 | B5 | 91 |  |  |  | 
44 | B6 | 144 |  |  |  | 
